Columns and labels:
[1] = target: microtubules (without MAP7); test: single-molecule TIRF microscopy
[2] = target: microtubules (without MAP7); test: optical trapping
[3] = target: MAP7-decorated microtubules (mammalian MAP7) (UniProt O88735); test: optical trapping

| mean dwell time [1] [s] | unbinding rate at zero load [2] [s⁻¹] | increase of the relative binding rate against microtubules without MAP7 [3] [%] | unbinding rate at zero load [3] [s⁻¹] | Substance |
| --- | --- | --- | --- | --- |
| 114 |  |  |  | MAP7 (ensconsin, E-MAP-115), mammalian, with N-terminal FLAG and SNAP-tags (from UniProt O88735 1-730) (natural protein) |
|  | 0.0237 | 10 | 0.0207 | dynein on isolated phagosomes (teams of dynein motors) (complex) |
